Here are results for one substance from patent US9382311.

The target of the assay is JR-CSF gp120 N276A (HIV-1) (UniProt P20871). As to the kind of experiment: cell-based or functional assay.

Substance VRC01 (antibody) gave an increase in neutralization potency of 4 fold.
